Results on 1 molecule are retold here after article PMC11259171, “Huntingtin is an RNA binding protein and participates in NEAT1-mediated paraspeckles”.

The target in the series is mHTT-HAP40 Q54 (expanded mutant huntingtin with HAP40) (UniProt P42858;P23610 1-38+=QQQQQQQQQQQQQQQQQQQQQQQQQQQQQQQQQ+39-3142;1-371, internal_change). The series can be described thus: fluorescence polarization (method implied); 20 mM Hepes pH 7.4, 50 mM KCl, 2 mM MgCl2, 1 mM TCEP, 2.5% glycerol, 0.005% Tween 20; SPR 20 C, EMSA on ice, FP 10 min (temperature not stated). Particulars: protein: recombinant; copies: 1;1; label: 5'-FAM (FP, EMSA); biotin (SPR). (Polarisation of emitted light reports the rotation of a fluorescent probe.)
Chain of mHTT-HAP40 Q54 (expanded mutant huntingtin with HAP40) (P42858 other isoform, or with tags, fused parts or gaps | mutant, chain 1 of 2): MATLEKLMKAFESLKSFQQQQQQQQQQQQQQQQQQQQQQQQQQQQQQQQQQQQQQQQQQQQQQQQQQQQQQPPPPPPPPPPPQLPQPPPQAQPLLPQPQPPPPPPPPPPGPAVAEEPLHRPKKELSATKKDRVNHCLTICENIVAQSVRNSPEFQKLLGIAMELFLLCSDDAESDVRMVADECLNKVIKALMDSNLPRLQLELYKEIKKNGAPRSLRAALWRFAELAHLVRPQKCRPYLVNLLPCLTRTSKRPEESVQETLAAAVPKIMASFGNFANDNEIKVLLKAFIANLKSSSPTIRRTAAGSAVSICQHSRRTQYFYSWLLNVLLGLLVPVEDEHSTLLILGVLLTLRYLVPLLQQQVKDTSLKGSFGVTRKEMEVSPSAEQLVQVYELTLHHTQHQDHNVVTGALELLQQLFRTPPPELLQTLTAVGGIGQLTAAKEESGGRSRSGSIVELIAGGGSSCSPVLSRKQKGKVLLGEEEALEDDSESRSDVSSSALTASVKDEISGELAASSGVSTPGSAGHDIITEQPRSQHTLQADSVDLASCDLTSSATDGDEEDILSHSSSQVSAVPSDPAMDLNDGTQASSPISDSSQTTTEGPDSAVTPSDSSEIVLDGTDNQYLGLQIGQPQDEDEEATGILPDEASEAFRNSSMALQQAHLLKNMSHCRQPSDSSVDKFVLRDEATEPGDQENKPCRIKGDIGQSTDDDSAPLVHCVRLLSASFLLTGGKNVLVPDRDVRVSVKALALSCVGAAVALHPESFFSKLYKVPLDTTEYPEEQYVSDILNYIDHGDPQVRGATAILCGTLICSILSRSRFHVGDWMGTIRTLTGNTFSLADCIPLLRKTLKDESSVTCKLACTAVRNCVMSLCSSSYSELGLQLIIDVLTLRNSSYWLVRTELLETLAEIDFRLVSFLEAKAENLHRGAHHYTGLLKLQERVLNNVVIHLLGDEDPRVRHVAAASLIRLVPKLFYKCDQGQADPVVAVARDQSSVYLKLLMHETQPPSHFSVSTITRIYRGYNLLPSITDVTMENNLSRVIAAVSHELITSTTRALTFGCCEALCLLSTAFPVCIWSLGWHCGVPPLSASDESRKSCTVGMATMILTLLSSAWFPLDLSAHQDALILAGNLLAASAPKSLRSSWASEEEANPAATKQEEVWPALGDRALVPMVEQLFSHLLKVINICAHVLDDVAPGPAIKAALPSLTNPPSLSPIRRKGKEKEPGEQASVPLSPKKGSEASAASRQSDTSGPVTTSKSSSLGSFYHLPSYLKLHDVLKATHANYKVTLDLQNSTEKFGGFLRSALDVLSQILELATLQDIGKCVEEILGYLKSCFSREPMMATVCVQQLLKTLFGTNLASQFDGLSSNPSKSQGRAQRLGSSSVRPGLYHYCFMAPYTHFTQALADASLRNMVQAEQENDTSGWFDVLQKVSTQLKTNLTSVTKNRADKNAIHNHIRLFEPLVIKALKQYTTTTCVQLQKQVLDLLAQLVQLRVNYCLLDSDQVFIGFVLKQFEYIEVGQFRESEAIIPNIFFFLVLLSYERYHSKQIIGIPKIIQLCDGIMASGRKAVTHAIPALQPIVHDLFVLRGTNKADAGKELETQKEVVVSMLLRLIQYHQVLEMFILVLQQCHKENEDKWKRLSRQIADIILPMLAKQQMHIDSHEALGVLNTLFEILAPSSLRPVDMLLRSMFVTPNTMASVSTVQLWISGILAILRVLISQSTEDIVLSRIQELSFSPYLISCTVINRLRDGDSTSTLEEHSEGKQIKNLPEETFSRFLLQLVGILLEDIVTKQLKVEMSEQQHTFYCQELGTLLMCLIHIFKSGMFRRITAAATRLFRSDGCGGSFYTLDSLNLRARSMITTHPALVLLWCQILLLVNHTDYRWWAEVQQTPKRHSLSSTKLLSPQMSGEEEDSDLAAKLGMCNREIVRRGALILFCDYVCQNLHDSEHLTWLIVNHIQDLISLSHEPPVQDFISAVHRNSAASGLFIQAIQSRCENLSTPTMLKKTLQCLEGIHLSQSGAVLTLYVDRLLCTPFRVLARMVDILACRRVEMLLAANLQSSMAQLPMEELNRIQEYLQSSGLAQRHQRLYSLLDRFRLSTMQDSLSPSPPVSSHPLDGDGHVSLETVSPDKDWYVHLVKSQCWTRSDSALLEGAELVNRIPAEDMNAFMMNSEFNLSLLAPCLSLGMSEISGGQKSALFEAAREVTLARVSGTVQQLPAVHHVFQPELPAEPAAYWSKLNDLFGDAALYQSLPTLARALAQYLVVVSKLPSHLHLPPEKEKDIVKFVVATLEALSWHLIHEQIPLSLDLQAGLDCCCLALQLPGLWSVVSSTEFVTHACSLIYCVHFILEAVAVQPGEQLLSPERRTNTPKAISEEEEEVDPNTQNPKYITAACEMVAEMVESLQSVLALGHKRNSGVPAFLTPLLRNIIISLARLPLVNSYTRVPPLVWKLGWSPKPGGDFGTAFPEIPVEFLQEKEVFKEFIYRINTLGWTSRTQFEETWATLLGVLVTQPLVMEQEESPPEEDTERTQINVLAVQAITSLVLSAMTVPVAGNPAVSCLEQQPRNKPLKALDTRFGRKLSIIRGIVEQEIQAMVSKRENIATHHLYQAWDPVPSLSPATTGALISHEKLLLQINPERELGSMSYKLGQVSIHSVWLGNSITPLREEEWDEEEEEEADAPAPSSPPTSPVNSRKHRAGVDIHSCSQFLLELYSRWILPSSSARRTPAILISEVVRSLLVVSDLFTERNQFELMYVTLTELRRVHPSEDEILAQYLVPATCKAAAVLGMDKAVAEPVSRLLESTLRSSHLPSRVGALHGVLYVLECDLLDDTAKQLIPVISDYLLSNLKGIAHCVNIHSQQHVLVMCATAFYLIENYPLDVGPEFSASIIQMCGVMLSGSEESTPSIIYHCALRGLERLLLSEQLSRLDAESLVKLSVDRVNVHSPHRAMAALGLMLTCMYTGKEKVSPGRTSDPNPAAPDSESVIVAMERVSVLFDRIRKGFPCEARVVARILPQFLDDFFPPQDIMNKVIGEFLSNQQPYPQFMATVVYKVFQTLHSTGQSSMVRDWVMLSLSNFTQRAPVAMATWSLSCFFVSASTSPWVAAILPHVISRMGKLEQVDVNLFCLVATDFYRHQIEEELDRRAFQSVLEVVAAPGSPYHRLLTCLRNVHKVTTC
Chain of mHTT-HAP40 Q54 (expanded mutant huntingtin with HAP40) (P23610 whole entry, change not shown, chain 2 of 2): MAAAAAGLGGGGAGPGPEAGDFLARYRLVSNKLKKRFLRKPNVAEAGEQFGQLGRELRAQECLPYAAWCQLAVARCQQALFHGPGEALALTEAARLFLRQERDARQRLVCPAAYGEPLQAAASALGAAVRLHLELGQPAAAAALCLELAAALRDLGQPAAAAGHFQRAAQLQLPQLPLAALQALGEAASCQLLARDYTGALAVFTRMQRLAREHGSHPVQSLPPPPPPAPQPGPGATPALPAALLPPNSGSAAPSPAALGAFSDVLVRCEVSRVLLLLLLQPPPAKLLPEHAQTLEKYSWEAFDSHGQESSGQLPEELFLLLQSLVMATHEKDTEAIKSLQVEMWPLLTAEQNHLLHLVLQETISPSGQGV

B1: 100-mer random ssRNA (ssRNA)
RNA: CACGUAUGAGAAGGUAUUUGCCCGAUAAUCAAUACCCCAGGCUUCUAACUUUUUCCACUCGCUUGAGCCGGCUAGGCCUUUCUGCCCGAAGUUUCGAUGG
In the case of B1, the dissociation constant Kd (as a rule, the equilibrium constant for the complex coming apart) turned out to be 500 ± 300 nM.
